Measurements: US20260063625A1, “COMPOSITIONS FOR AND METHODS OF DETECTING FOOD TOXINS” (priority 2022, published 2026)

Key:
[1] = format: binding; conditions: 1.1 μM Sxph, 0-20 μM STX
[2] = Fluorescence polarization (FP) binding to fluorescein labeled STX; conditions: T = 298K; for […]G (kcal mol^−1) relative to wild-type RcSxph: […]G = RT ln (KdSxph mutant/KdSxph)
[3] = Isothermal titration calorimetry (ITC) of STX into Sxph; format: binding; conditions: 25° C.
Experimental: ITC measurements were performed at 25° C. using a MicroCal PEAQ-ITC calorimeter (Malvern Panalytical). […]. This STX stock was diluted with the SEC buffer to prepare 100 μM or 300 μM STX solutions having a final buffer composition of 135 mM NaCl, 9 mM HEPES, pH 7.4. […]. The calorimetric experiment settings were: reference power, 5 μcal/s; spacing between injections, 150 s; stir speed 750 rpm; and feedback mode, high. Data were analyzed using MicroCal PEAQ-ITC Analysis Software (Malvern Panalytical) using a single binding site model. The heat of dilution from titrations of 100 μM STX in 135 mM NaCl, 9 mM HEPES, pH 7.4 into 135 mM NaCl, 9 mM HEPES, pH 7.4 was subtracted from each experiment to correct the baseline.

[4] = test system: PtNaV1.4; assay: Two-electrode voltage clamp: Sxph rescue of PtNaV1.4 from STX block in Xenopus oocytes; format: cell-based, Phyllobates terribilis; conditions: [Sxph]:[STX] ratio, 100 nM STX

Row | Molecule | DTm ([…]Tm=TmSxph+20 μM toxin−TmSxph), STX [1] | […]G (kcal mol^−1) relative to RcSxph ([2]; […]G = RT ln (Kd(XSxph)/Kd(RcSxph))) | […]G [3] | […]H (kcal mol^−1), binding enthalpy [3] | […]S (cal mol^−1 K^−1) [3] | […]H (kcal mol^−1), binding enthalpy ([3]; listed as NpSxph WT) | […]G (kcal mol^−1) relative to wild-type RcSxph [2] | Effective Rescue Ratio50 (ERR50) [4]
1 | NpSxph: Saxiphilin of Nanorana parkeri, High Himalaya frog, SEQ ID NO:2 (protein, listed as Nanorana parkeri) MALTFHTALYFTIVGLSFAASDARHVQWCTISHLEQKKCNDLVGSCNVPDITLACVYRSSTENCMAAIKDGQADAMFLDSGDVYKASLDHYNLKPIIAEPYSLHRELTKCLKHRQESLGGDKMVKGRYIPQCDEKGNYHPVQCHASTGYCWCVNANGEKIEGTNTTPVQTPPTCPSQVLTKCLKERQEALGGKRIAIGRYIPQCDEQGNYRPMQCHGSTGYCWCVNAIGEKIEGTNTPPGNTQPTCQSHDWDTCHYAVAVVKNSSTFQFGQLKGKRSCHSGLSKTDGWNAPVNVFVEKKLLPWDGLAKGSIERAVSKFFSASCIPGATETNLCKQCIGEEEKKCKSSHDEPYYGDHGAFRCLQEDKGDVAFLKNTALPDEHSGVYELLCPDNTRKPLNKYKECNLGKVPADAVVTRKAGDKTKDINDFLLEAQKKKCKLFGSPHGKDLMFDDSTTHLAPLPSEIDAFFFLGVKWYNAMKALTEDVKLPSKNKVRWCTINKPEMMKCKDWAAVSGGAIACTEASCPEHCVKQILKGEADAVTLDVQYMYMALMCGLLPAVEEYPNKDDFHPCQIPGSTIKDFGTKRAVALVKKSNKDIKWNNLKGKKSCHTHVGDIPGWVIPAGLISNQNDNIDIESFFGESCAPGSDTNSKLCKLCIGDPENPKASTRCSLSDKEAYYGNEGAFRCLVEKGDVAFVPHTVVFANTDGKNPAEWAKDLKSEDFEILCLDGSRAPVTNYRGCNLSGLPPRAIVTREESVSDVVRILINQQSLYGRNGFEKDMFQMFSSAKGQNLLFNDETQCLIEFDRQPKDIMEDYFGVRYYTAVYSASRSAVPSELIPACTFKHC | 3.6 °C | -1.60 kcal/mol | -11.8 ± 0.1 kcal/mol | -18.7 ± 0.2 kcal/mol | −23.2 ± 0.8 cal mol^−1 K^−1 | -18.7 ± 0.2 kcal/mol |  | 
2 | I782A: RcSxph mutant, alanine for isoleucine at position 782 (protein) MAPTFQTALFFTIISLSFAAPNAKQVRWCAISDLEQKKCNDLVGSCNVPDITLVCVLRSSTEDCMTAIKDGQADAMFLDSGEVYEASKDPYNLKPIIAEPYSSNRDLQKCLKERQQALAKKMIGHYIPQCDEKGNYQPQQCHGSTGHCWCVNAMGEKISGTNTPPGQTRATCERHELPKCLKERQVALGGDEKVLGRFVPQCDEKGNYEPQQFHGSTGYSWCVNAIGEEIAGTKTPPGKIPATCQKHDLVTTCHYAVAMVKKSSAFQFNQLKGKRSCHSGVSKTDGWKALVTVLVEKKLLSWDGPAKESIQRAMSKFFSVSCIPGATQTNLCKQCKGEEGKNCKNSHDEPYYGNYGAFRCLKEDMGDVAFLRSTALSDEHSEVYELLCPDNTRKPLNKYKECNLGTVPAGTVVTRKISDKTEDINNFLMEAQKRQCKLFSSAHGKDLMFDDSTLQLALLSSEVDAFLYLGVKLFHAMKALTGDAHLPSKNKVRWCTINKLEKMKCDDWSAVSGGAIACTEASCPKGCVKQILKGEADAVKLEVQYMYEALMCGLLPAVEEYHNKDDFGPCKTPGSPYTDFGTLRAVALVKKSNKDINWNNIKGKKSCHTGVGDIAGWVIPVSLIRRQNDNSDIDSFFGESCAPGSDTKSNLCKLCIGDPKNSAANTKCSLSDKEAYYGNQGAFRCLVEKGDVAFVPHTVVFENTDGKNPAVWAKNLKSEDFELLCLDGSRAPVSNYKSCKLSGIPPPAIVTREESISDVVRIVANQQSLYGRKGFEKDMFQLFSSNKGNNLLFNDNTQCLATFDRQPKDIMEDYFGKPYYTTVYGASRSAMSSELISACTIKHC | DTm increases relative to wild-type |  |  |  |  |  | -0.53 kcal/mol | 0.87±0.02
3 | P727A: RcSxph mutant P727A (protein) MAPTFQTALFFTIISLSFAAPNAKQVRWCAISDLEQKKCNDLVGSCNVPDITLVCVLRSSTEDCMTAIKDGQADAMFLDSGEVYEASKDPYNLKPIIAEPYSSNRDLQKCLKERQQALAKKMIGHYIPQCDEKGNYQPQQCHGSTGHCWCVNAMGEKISGTNTPPGQTRATCERHELPKCLKERQVALGGDEKVLGRFVPQCDEKGNYEPQQFHGSTGYSWCVNAIGEEIAGTKTPPGKIPATCQKHDLVTTCHYAVAMVKKSSAFQFNQLKGKRSCHSGVSKTDGWKALVTVLVEKKLLSWDGPAKESIQRAMSKFFSVSCIPGATQTNLCKQCKGEEGKNCKNSHDEPYYGNYGAFRCLKEDMGDVAFLRSTALSDEHSEVYELLCPDNTRKPLNKYKECNLGTVPAGTVVTRKISDKTEDINNFLMEAQKRQCKLFSSAHGKDLMFDDSTLQLALLSSEVDAFLYLGVKLFHAMKALTGDAHLPSKNKVRWCTINKLEKMKCDDWSAVSGGAIACTEASCPKGCVKQILKGEADAVKLEVQYMYEALMCGLLPAVEEYHNKDDFGPCKTPGSPYTDFGTLRAVALVKKSNKDINWNNIKGKKSCHTGVGDIAGWVIPVSLIRRQNDNSDIDSFFGESCAPGSDTKSNLCKLCIGDPKNSAANTKCSLSDKEAYYGNQGAFRCLVEKGDVAFVPHTVVFENTDGKNPAVWAKNLKSEDFELLCLDGSRAPVSNYKSCKLSGIPAPAIVTREESISDVVRIVANQQSLYGRKGFEKDMFQLFSSNKGNNLLFNDNTQCLITFDRQPKDIMEDYFGKPYYTTVYGASRSAMSSELISACTIKHC |  |  | -10.3 ± 0.2 kcal/mol | -11.5 ± 0.0 kcal/mol | −4.2 ± 0.9 cal mol^−1 K^−1 |  | 1.21 kcal/mol | > 4
4 | Y558I: RcSxph mutant, isoleucine for tyrosine at position 558 (protein) MAPTFQTALFFTIISLSFAAPNAKQVRWCAISDLEQKKCNDLVGSCNVPDITLVCVLRSSTEDCMTAIKDGQADAMFLDSGEVYEASKDPYNLKPIIAEPYSSNRDLQKCLKERQQALAKKMIGHYIPQCDEKGNYQPQQCHGSTGHCWCVNAMGEKISGTNTPPGQTRATCERHELPKCLKERQVALGGDEKVLGRFVPQCDEKGNYEPQQFHGSTGYSWCVNAIGEEIAGTKTPPGKIPATCQKHDLVTTCHYAVAMVKKSSAFQFNQLKGKRSCHSGVSKTDGWKALVTVLVEKKLLSWDGPAKESIQRAMSKFFSVSCIPGATQTNLCKQCKGEEGKNCKNSHDEPYYGNYGAFRCLKEDMGDVAFLRSTALSDEHSEVYELLCPDNTRKPLNKYKECNLGTVPAGTVVTRKISDKTEDINNFLMEAQKRQCKLFSSAHGKDLMFDDSTLQLALLSSEVDAFLYLGVKLFHAMKALTGDAHLPSKNKVRWCTINKLEKMKCDDWSAVSGGAIACTEASCPKGCVKQILKGEADAVKLEVQYMYEALMCGLLPAVEEYHNKDDFGPCKTPGSPITDFGTLRAVALVKKSNKDINWNNIKGKKSCHTGVGDIAGWVIPVSLIRRQNDNSDIDSFFGESCAPGSDTKSNLCKLCIGDPKNSAANTKCSLSDKEAYYGNQGAFRCLVEKGDVAFVPHTVVFENTDGKNPAVWAKNLKSEDFELLCLDGSRAPVSNYKSCKLSGIPPPAIVTREESISDVVRIVANQQSLYGRKGFEKDMFQLFSSNKGNNLLFNDNTQCLITFDRQPKDIMEDYFGKPYYTTVYGASRSAMSSELISACTIKHC |  |  | -12.2 ± 0.3 kcal/mol | -15.5 ± 0.3 kcal/mol | −10.5 ± 0.6 cal mol^−1 K^−1 |  | -1.07 kcal/mol | 0.81±0.01
5 | E540A: RcSxph mutant E540A (protein) MAPTFQTALFFTIISLSFAAPNAKQVRWCAISDLEQKKCNDLVGSCNVPDITLVCVLRSSTEDCMTAIKDGQADAMFLDSGEVYEASKDPYNLKPIIAEPYSSNRDLQKCLKERQQALAKKMIGHYIPQCDEKGNYQPQQCHGSTGHCWCVNAMGEKISGTNTPPGQTRATCERHELPKCLKERQVALGGDEKVLGRFVPQCDEKGNYEPQQFHGSTGYSWCVNAIGEEIAGTKTPPGKIPATCQKHDLVTTCHYAVAMVKKSSAFQFNQLKGKRSCHSGVSKTDGWKALVTVLVEKKLLSWDGPAKESIQRAMSKFFSVSCIPGATQTNLCKQCKGEEGKNCKNSHDEPYYGNYGAFRCLKEDMGDVAFLRSTALSDEHSEVYELLCPDNTRKPLNKYKECNLGTVPAGTVVTRKISDKTEDINNFLMEAQKRQCKLFSSAHGKDLMFDDSTLQLALLSSEVDAFLYLGVKLFHAMKALTGDAHLPSKNKVRWCTINKLEKMKCDDWSAVSGGAIACTEASCPKGCVKQILKGEADAVKLEVQYMYEALMCGLLPAVAEYHNKDDFGPCKTPGSPYTDFGTLRAVALVKKSNKDINWNNIKGKKSCHTGVGDIAGWVIPVSLIRRQNDNSDIDSFFGESCAPGSDTKSNLCKLCIGDPKNSAANTKCSLSDKEAYYGNQGAFRCLVEKGDVAFVPHTVVFENTDGKNPAVWAKNLKSEDFELLCLDGSRAPVSNYKSCKLSGIPPPAIVTREESISDVVRIVANQQSLYGRKGFEKDMFQLFSSNKGNNLLFNDNTQCLITFDRQPKDIMEDYFGKPYYTTVYGASRSAMSSELISACTIKHC | complete loss of the thermal shift |  |  |  |  |  | 4.52 kcal/mol | eliminated
